Test results taken from patent publication US20240150441A1.

Experiments:
[1] = target: spike (S) protein of the authentic parental Omicron variant (B.1.1.529) of SARS-CoV-2 (SARS-CoV-2, B.1.1.529 (Omicron) variant) (UniProt P0DTC2); experiment: cell-based or functional assay
[2] = target: spike (S) protein of the BA.4/5 SARS-CoV-2 pseudovirus (SARS-CoV-2, Omicron subvariant BA.4/5) (UniProt P0DTC2); experiment: cell-based or functional assay

## plant-made cilgavimab (pCilgavimab) (antibody)
[1]
  neutralization of authentic B.1.1.529 (Omicron) virus, foci-forming assay, IC50: 2.23 µg/mL
[2]
  neutralization of BA.4/5 pseudovirus, luciferase reporter assay, IC50: 0.102 µg/mL
